These results are taken from article PMC11614108, “Structures of Trichomonas vaginalis macrophage migratory inhibitory factor” (Acta Crystallographica Section F: Structural Biology …, 2024).

Experiment [1] has as its target T1, His-TvMIF (T. vaginalis macrophage migration inhibitory factor) (Trichomonas vaginalis, UniProt A2DXT4).
T1 construct: gene TVAG_219770; ~15 kDa monomer; trimer in crystal (8ur2: dimer of trimers)
Put plainly: X-ray crystal structure, co-crystallization, […] A. Type of experiment: binding. Particulars: 5 mM sodium pyruvate, pH 7.0 protein buffer, reservoir pH 8.5, 291 K; non-canonical site at Asp68, not the tautomerase site (blocked by N-terminal tag); possibly a crystallization artifact.

Experiment [2] concerns the target N-terminally hexahistidine-tagged Trichomonas vaginalis macrophage migration inhibitory factor (Trichomonas vaginalis ATCC PRA-98/G3). Nature of the experiment: crystal structure; His-TvMIF crystallized at 291 K by sitting-drop vapor diffusion; apo P4(1)2(1)2 form (PDB 8uz4) and I4(1)22 form from an attempt at co-crystallization with 5 mM sodium 4-hydroxyphenylpyruvate (PDB 8ur4); three monomers per asymmetric unit.

The target is the same in experiment [3]. Nature of the experiment: crystal structure; His-TvMIF co-crystallized with 5 mM sodium pyruvate, Morpheus B12, 291 K, space group I4(1) (PDB 8ur2); six monomers.

As to `CC(=O)C(=O)O` [pyruvate], the “X-ray crystal structure, co-crystallization, 1.90 A” value in experiment [1] was “The Fo − Fc omit electron-density maps of PDB entry 8ur2 can be modeled with pyruvate”.

The stoichiometry N is a count of units in the complex or per binding partner. As to “N-terminally hexahistidine-tagged Trichomonas vaginalis macrophage migration inhibitory factor (natural protein)”, the results for the stoichiometry N in experiment [2] and in experiment [3] were 3 and 6, respectively.
